According to the supplement of paper PMC10567573:

B1: PTPRD (parent)
chain: ITWFKDFLPVDTSNNNGRIKQLRS
B2: TCEB3B (parent)
chain: STTALGDKQRKANESKGTRESWDS
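Also: lentivirally expressed fusions sorted by FACS into six bins by GFP to DsRed ratio, PSI derived from sequencing read proportions per bin multiplied by bin number.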

Variants of: B1
Experiment: protein stability index of a GFP-peptide fusion (GPS, HEK-293T) (PSI 1-6); higher = more stable
Settings: c terminus: a fixed tail appended
In the case of N14I, the protein stability index is reported as 1.85.
Work on N14C yielded a protein stability index of 1.52.
For R18F, the protein stability index was 2.04.
Work on R18Y yielded a protein stability index of 2.1.
R18G showed a protein stability index of 2.73.
Work on I1D yielded a protein stability index of 3.88.
With D6K the protein stability index was 1.85.
In the case of T2E, the protein stability index is reported as 2.33.
Work on T2V yielded a protein stability index of 1.86.
Variant T2W has a protein stability index of 2.21.
Variant T2M has a protein stability index of 1.96.
F7V showed a protein stability index of 1.85.
F7D gave a protein stability index of 2.74.
In the case of F7L, the protein stability index is reported as 2.41.
For F7P, the protein stability index was 2.32.
In the case of F7W, the protein stability index is reported as 1.82.
For F7N, the protein stability index was 2.47.
Variant K5C has a protein stability index of 2.25.
With K5S the protein stability index was 2.37.
Work on K5M yielded a protein stability index of 2.43.
For K5T, the protein stability index was 2.1.
With V10M the protein stability index was 1.86.
With V10N the protein stability index was 2.34.
In the case of S24M, the protein stability index is reported as 1.54.
S24N gave a protein stability index of 1.88.
S24D showed a protein stability index of 1.9.
For S24E, the protein stability index was 1.77.
R23M showed a protein stability index of 1.88.
Work on R23A yielded a protein stability index of 2.89.
L22R showed a protein stability index of 1.83.
With L22H the protein stability index was 2.28.
With L22M the protein stability index was 1.88.
Variant L22I has a protein stability index of 2.24.
For L22N, the protein stability index was 2.01.
In the case of L8Q, the protein stability index is reported as 1.78.
In the case of K20L, the protein stability index is reported as 2.
Variant K20F has a protein stability index of 1.98.
Variant K20I has a protein stability index of 1.31.
K20E showed a protein stability index of 1.74.
Variant F4S has a protein stability index of 1.57.
For F4R, the protein stability index was 2.49.
In the case of F4N, the protein stability index is reported as 2.57.
With F4M the protein stability index was 1.59.
Work on S13P yielded a protein stability index of 2.34.
For S13E, the protein stability index was 1.7.
In the case of S13Y, the protein stability index is reported as 2.05.
Work on P9Y yielded a protein stability index of 1.66.
With P9H the protein stability index was 1.45.
With N16R the protein stability index was 1.65.
In the case of N16A, the protein stability index is reported as 1.78.
For N16M, the protein stability index was 1.43.
For N16H, the protein stability index was 1.58.
Variant I19D has a protein stability index of 2.08.
For I19S, the protein stability index was 1.54.
In the case of I19T, the protein stability index is reported as 2.23.
I19Q showed a protein stability index of 2.57.
In the case of Q21R, the protein stability index is reported as 1.55.
Variant Q21E has a protein stability index of 2.2.
Variant Q21A has a protein stability index of 1.57.
T12P showed a protein stability index of 2.03.
In the case of T12E, the protein stability index is reported as 2.06.
Work on T12W yielded a protein stability index of 1.84.
For N15R, the protein stability index was 1.71.
Work on N15V yielded a protein stability index of 1.74.
With N15T the protein stability index was 3.44.
In the case of N15F, the protein stability index is reported as 1.6.
Variant G17E has a protein stability index of 2.62.
G17T showed a protein stability index of 2.25.
G17F showed a protein stability index of 2.33.
With G17M the protein stability index was 1.34.
Work on D11M yielded a protein stability index of 2.16.
Work on D11S yielded a protein stability index of 2.06.
For W3Y, the protein stability index was 2.95.
For W3D, the protein stability index was 3.43.

Variants of: B2
Experiment: as above
Settings: c terminus: a fixed tail appended
With T3C the protein stability index was 3.22.
For T3G, the protein stability index was 4.22.
For T3F, the protein stability index was 3.32.
Variant T3W has a protein stability index of 3.57.
In the case of T3P, the protein stability index is reported as 4.02.
For T3D, the protein stability index was 3.98.
In the case of T3R, the protein stability index is reported as 3.89.
T3N showed a protein stability index of 3.77.
For T3A, the protein stability index was 3.89.
